The target in this experiment is human IgA1 (human) (UniProt P01876). Put plainly: cell-based or functional assay.
Sequence of UniProt P01876 (P01876 other isoform, or with tags, fused parts or gaps): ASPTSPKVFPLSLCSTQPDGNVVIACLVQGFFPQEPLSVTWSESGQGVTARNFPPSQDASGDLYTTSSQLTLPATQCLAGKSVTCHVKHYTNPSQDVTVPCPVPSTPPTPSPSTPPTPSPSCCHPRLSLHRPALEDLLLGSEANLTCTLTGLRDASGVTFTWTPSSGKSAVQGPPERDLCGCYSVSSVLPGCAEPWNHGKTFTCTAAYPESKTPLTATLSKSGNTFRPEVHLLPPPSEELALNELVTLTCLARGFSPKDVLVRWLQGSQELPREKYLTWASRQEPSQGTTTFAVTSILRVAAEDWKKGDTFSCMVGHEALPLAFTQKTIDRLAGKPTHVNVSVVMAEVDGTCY

With “C-terminal His-tagged H. influenzae IgA1 protease (proteolytic protease domain, lacking the α protein and β-core domains) (from UniProt P44969 26-1014) (enzyme)”, the human IgA1 cleavage activity of purified refolded IgA1 protease (Experion automated electrophoresis) (ng IgA1/uL/min/ng protease) was 50.

The values are drawn from patent US20100261252A1.
